Assay results from paper PMC4872226, “A rationally engineered yeast pyruvyltransferase Pvg1p introduces sialylation-like properties in neo-human-type complex oligosaccharide” (Scientific Reports, 2016).

Biological target: the molecule itself
Assay: crystal structure; hanging-drop vapor diffusion at 20 °C; 10 mg/mL Pvg1p in 100 mM MOPS-NaOH pH 7.4 with 20 mM PEP and 5 mM pNP-β-Gal; well solution with 10 mM zinc chloride; 2.46 Å; dimer in the asymmetric unit

B1: fission yeast pyruvyltransferase Pvg1p (enzyme, Schizosaccharomyces pombe, UniProt Q9UT27 32-401, looked up)
chain: DLQTLKNPSSLTSPSSSTSVDKKKPLFTKSPRNSASCESTITLQSNLLFTYYKHYFAGIKKVALIGFPDHPNKGDSAIYVAEKKLLDALNIEVVYITAQEADYSASELKSIISDIPRDEFALAFHGGGNFGDLYPDHQHLRELVVRDFPSFTTISFPQSVWYNEQQLLEQASILYAENPNITLVTRDRQSYGFAVDAFGKHNEVLLTPDIVFFMGPIPEIREATPITHDVLILARLDHEGGQQHGAEDYYRDTLNAANLTYSVEDWLLWDPPVAQNPDSSFDDRGQARYEAGAEFLASARVVITDRLHAHILSTLMGIPHIVVENSQMGKITNYHNTWLHGCTLDGVSVVVDSVDKALSLLLEWNEAGYF
notes: Pvg1p, pyruvyltransferase of Schizosaccharomyces pombe; the D32-F401 portion (without the predicted N-terminal transmembrane region) was used for crystallization; disulfide bond C68-C373 seen in the crystal structure; Expression plasmid pET32b-pvg1; also called recombinant Pvg1p
With B1 the “stoichiometry N” value was 2.
